Target: asialofetuin (Sigma Type-I) (Bos taurus (Bovine)) (UniProt P12763)

Q: Which […] (fluorescence assay, […] (mU/mg total protein) does the source give for “Triton extract of uninfected RK13 cells (pool or library)” here?
A: 0.036

— patent US6136579
